Source: patent publication US20050277175

Biological target: bovine aggrecan (UniProt P13608)
Sequence (P13608 20-2364): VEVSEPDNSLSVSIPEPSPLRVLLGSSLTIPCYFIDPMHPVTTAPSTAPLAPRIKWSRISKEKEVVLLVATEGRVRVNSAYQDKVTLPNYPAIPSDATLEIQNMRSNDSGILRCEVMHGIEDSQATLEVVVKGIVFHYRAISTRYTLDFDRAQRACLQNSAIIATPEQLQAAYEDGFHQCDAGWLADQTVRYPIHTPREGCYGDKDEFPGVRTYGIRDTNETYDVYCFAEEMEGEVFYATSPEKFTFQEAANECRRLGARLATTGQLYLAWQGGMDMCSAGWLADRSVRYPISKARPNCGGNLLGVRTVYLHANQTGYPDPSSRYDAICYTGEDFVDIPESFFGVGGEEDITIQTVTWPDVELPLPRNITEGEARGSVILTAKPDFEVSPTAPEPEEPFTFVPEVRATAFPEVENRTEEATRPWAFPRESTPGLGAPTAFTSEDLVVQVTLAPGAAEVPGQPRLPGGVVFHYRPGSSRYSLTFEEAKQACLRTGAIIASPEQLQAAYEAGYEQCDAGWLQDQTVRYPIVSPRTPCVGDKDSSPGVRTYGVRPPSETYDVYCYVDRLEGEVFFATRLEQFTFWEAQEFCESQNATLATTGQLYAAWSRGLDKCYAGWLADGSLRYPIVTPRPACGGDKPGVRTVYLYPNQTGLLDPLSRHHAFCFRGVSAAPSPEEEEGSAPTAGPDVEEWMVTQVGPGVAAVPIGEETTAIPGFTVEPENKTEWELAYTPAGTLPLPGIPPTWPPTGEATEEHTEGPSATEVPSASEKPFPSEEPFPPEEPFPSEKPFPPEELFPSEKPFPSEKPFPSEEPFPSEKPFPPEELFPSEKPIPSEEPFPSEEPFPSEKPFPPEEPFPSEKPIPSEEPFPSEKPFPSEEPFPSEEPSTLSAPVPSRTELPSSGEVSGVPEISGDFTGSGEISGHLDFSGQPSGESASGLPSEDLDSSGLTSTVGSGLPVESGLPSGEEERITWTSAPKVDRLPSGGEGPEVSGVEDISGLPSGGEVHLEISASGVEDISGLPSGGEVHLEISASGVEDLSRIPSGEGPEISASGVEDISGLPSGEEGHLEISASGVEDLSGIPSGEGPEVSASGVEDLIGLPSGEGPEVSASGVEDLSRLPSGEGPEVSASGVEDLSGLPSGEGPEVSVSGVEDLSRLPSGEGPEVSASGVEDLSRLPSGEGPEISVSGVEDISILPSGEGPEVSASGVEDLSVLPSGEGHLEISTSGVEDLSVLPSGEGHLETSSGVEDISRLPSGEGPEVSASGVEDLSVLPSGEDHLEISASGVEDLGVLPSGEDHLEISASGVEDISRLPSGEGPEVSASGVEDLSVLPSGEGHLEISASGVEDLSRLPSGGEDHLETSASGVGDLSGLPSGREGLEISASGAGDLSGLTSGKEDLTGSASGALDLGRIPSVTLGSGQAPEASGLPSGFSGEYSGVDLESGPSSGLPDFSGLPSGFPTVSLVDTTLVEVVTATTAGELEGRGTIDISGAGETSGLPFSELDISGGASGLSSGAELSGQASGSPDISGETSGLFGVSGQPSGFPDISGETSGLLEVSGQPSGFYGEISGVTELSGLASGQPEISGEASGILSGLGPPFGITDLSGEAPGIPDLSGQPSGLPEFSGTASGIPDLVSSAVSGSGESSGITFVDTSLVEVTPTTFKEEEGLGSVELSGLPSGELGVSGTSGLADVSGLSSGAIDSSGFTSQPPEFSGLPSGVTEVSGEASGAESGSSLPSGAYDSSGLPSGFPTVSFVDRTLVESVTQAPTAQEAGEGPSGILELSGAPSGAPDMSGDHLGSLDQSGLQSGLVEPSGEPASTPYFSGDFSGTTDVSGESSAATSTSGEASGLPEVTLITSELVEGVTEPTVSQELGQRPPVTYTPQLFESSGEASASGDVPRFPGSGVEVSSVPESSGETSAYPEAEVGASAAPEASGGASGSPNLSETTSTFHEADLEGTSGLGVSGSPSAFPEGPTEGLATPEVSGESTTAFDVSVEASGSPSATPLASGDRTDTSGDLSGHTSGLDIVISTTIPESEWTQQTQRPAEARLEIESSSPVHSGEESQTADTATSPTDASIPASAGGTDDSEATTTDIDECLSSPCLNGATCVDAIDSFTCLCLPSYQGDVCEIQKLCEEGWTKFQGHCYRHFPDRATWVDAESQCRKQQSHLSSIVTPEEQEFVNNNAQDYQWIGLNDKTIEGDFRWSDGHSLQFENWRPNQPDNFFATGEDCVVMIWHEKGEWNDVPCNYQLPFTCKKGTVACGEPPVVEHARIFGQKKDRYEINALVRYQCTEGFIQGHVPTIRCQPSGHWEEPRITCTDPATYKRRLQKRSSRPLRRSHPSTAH

For “recombinant aggrecanase 1 protein (ADAMTS-4)”, the “aggrecanase activity (digestion of bovine aggrecan, neoepitope Western blot with C1 MAb)” value was “Positive control is recombinant aggrecanase 1 protein (ADAMTS-4)”.
